In patent US20070224189A1 (published 2007):

Biological target: extracellular region of human V158 FcγRIIIa fused with glutathione S-Transferase (GST) (human, UniProt P08637 17-208)
Experiment: AlphaScreen competition

B1: WT alemtuzumab (antibody)
chain 1: not shown
chain 2: not shown
In the case of B1, the IC50 is reported as 4.6 nM.
